Assay results published in PMC4321091, “Recombinant Cyclodextrinase from Thermococcus kodakarensis KOD1: Expression, Purification, and Enzymatic Characterization” (Archaea, 2015).

Substrate: OC[C@H]1O[C@@H]2O[C@H]3[C@H](O)[C@@H](O)[C@@H](O[C@H]4[C@H](O)[C@@H](O)[C@@H](O[C@H]5[C@H](O)[C@@H](O)[C@@H](O[C@H]6[C@H](O)[C@@H](O)[C@@H](O[C@H]7[C@H](O)[C@@H](O)[C@@H](O[C@H]8[C@H](O)[C@@H](O)[C@@H](O[C@H]1[C@H](O)[C@H]2O)O[C@@H]8CO)O[C@@H]7CO)O[C@@H]6CO)O[C@@H]5CO)O[C@@H]4CO)O[C@@H]3CO
Test: purified protein
Format: biochemical, Thermococcus kodakarensis
Details: 20 mM Tris-HCl pH 7.5, 65°C, 1-10 mg/mL β-CD

B1: CDase-Tk (Tk1770) (Thermococcus kodakarensis KOD1) (protein)
chain: MYKVFGFEENFIHGRVARVEFSLPDAGRWDYAYLLGNFNAFNEGSFRMKHEDKRWIIEIKLPEGLWRYAFSAGGEFLLDPENPEKELYRRPSYKFEREVSLAKIAGNDMVFHRPALLYLYSFGDRTHVLLRSKKGKVDAAYLVTDDTHVKMRKKADGEVFEYYEAVLQETEKLRYSFEVFLKEGKSLTLGPFEAAPFRLDAPSWILDRVFYQIMPDRFAKGRDHEPPFLSWEYYGGDLWGIVEKIDHLEELGVNALYLTPIFESMTYHGYDITDYLRVAERLGGEEAFRELVKALKSRDIKLVLDGVFHHTSFFHPFFRDVVERGEESEYADFYRVKGFPVVSEEFIRVLKSDLPPMEKYQTLKKMGWNYESFFSVWVMPRLNHDSPKVREFVARVMNYWLEKGADGWRLDVAHGVPPGFWREVREGLPDDAYLFGEVMDDPRLYLFGVFHGVMNYPLYDLLLRFFAFGEIGATEFINGIELLSAHLGPAEYFTYNFLDNHDTERFIDLAGKERYLCALTFLMTYKGIPAIFYGDEIGLRGSGEGMSAGRTPMSWDEEKWDFQILRQTMKLIELRRSLKSLQVGSFRVIGAGEKWFVYERKAGSERVLVGINCSWNDVETPVPSNGSNEQIKIPAFSSIIRVKDSMNVHIGSDLQE
notes: pET28a EcoRI/XhoI, E. coli BL21(DE3), DEAE purified
**Q.** How did the Km turn out when B1 was run?
**A.** 3.13 ± 0.47 mg/mL

**Q.** What about the kcat of the same protein?
**A.** 34.6 s⁻¹
